In patent publication US20250223342A1 (ARGENX, published 2025):
Changes are numbered by the printed parent chain. Like-named read-outs stand apart in the source and are kept apart here.

Assays:
human serum albumin [1] = target: T1, human serum albumin (human, UniProt P02768 25-609); assay: SPR (Biacore 8K+, single cycle kinetics), HSA on CM5 chip
T1 construct: also called HSA

human serum albumin [2] = target: T1, human serum albumin; assay: SPR (Biacore 8K+, single cycle kinetics), HSA on CM5 chip, HBS-EP+ pH 7.4
human serum albumin [3] = target: T1, human serum albumin; assay: SPR (Biacore 8K+, single cycle kinetics), HSA on CM5 chip, citrate buffer pH 5.5
human serum albumin [4] = target: T1, human serum albumin; assay: SPR (Biacore), VHH clone, pH 5.5
human serum albumin [5] = target: T1, human serum albumin; assay: SPR (Biacore), VHH clone, pH 7.4
[6] = target: T2, isolated DII of serum albumin (UniProt P02768 211-403, limits assumed); assay: DII binder column of the clone screening
T2 construct: domain: DII

human serum albumin [7] = target: T1, human serum albumin; assay: SPR (Biacore), off-rate pH 7.4 over pH 5.5
[8] = target: T3, cynomolgus monkey serum albumin (cynomolgus monkey, UniProt A2V9Z4 25-608); assay: species reactivity, screening by ELISA and Biacore
T3 construct: also called cyno albumin; CSA

mouse serum albumin = target: T4, mouse serum albumin (mouse, UniProt P07724 25-608); assay: species reactivity, screening by ELISA and Biacore
T4 construct: also called MSA; mouse albumin

human serum albumin [9] = target: T1, human serum albumin; assay: SPR (Biacore 3000), HSA on chip, Fc-ABDEG fusion, pH 5.5
human serum albumin [10] = target: T1, human serum albumin; assay: SPR (Biacore 3000), HSA on chip, Fc-ABDEG fusion, pH 7.4
human serum albumin [11] = target: T1, human serum albumin; assay: SPR (Biacore 3000), HSA on chip, Fc-ABDEG fusion, pH 5.5; remark: listed apart in the source
human serum albumin [12] = target: T1, human serum albumin; assay: SPR (Biacore 3000), HSA on chip, Fc-ABDEG fusion, pH 7.4; remark: listed apart in the source
human serum albumin [13] = target: T1, human serum albumin; assay: SPR (Biacore 3000), HSA on chip, Fc-ABDEG fusion, ratio of R0
human serum albumin [14] = target: T1, human serum albumin; assay: as above; remark: listed apart in the source
[15] = target: T3, cynomolgus monkey serum albumin; assay: SPR (Biacore 3000), cyno albumin on chip, Fc-ABDEG fusion, pH 5.5
[16] = target: T3, cynomolgus monkey serum albumin; assay: SPR (Biacore 3000), cyno albumin on chip, Fc-ABDEG fusion, pH 7.4
[17] = target: T3, cynomolgus monkey serum albumin; assay: SPR (Biacore 3000), cyno albumin on chip, Fc-ABDEG fusion, ratio of R0
[18] = target: T3, cynomolgus monkey serum albumin; assay: SPR (Biacore 3000), albumin on chip, Fc-ABDEG fusion

Molecule: Motavizumab-Fab fragment with Alb23 fused C-terminally to the light chain using a 20GS linker
- KD ratio (pH 7.4 / pH 5.5) (human serum albumin [1]): 5.28
- Kd (human serum albumin [2]): 65 nM
- Kd (human serum albumin [3]): 12.3 nM

B1: 12G03 (VHH)
VHH: QVQLVESGGGLVQAGGSLRLSCAASERAFSHSNMAWFRQAPGKEREFVAHIHWRGSTTYLDSVKGRFTISRDNAKNTVYLQMNGLRLEDTAVYYCAADSARRILVTVSTSYDYWGQGTQVTVSS
- Kd (human serum albumin [4]): 8.14 nM
- koff (human serum albumin [4]): 0.00126 s⁻¹
- koff (human serum albumin [5]): 0.00522 s⁻¹
- binding result [6]: no binding
- Ratio Kd (human serum albumin [7]): 4.1
- binding result [8]: binds
- binding result (mouse serum albumin): binds

B2: 11C03 parental fused at the C-terminus of Fc-ABDEG (Fc fusion, not shown: a dimerising Fc or GST; small tags and cut ends)
chain: QLQVVESGGGLVQAGGSLRLSCAASERTFVAYPMGWFRQAPEKEREFVAGISWFAGATTDYADSVEGRFTISRDNAKNTAYLQMNNLKPEDTAVYYCAISHQLPGGRPGRDMDSYSYWGHGTQVTVSS
- R0 pH 5.5 (human serum albumin [9]): 177 RU
- R0 pH 7.4 (human serum albumin [10]): 42.2 RU
- R0 pH 5.5 (human serum albumin [11]): 229 RU
- R0 pH 7.4 (human serum albumin [12]): 57 RU
- R0 5.5/7.4 (human serum albumin [13]): 4.22
- R0 5.5/7.4 (human serum albumin [14]): 4
- R0 pH 5.5 [15]: 220 RU
- R0 pH 7.4 [16]: 33 RU
- R0 5.5/7.4 [17]: 6.7

B3: 11C03 (VHH)
VHH: B2 chain
notes: also called 11C03 parental (VHH)
- Kd (human serum albumin [4]): 4.12 nM
- koff (human serum albumin [4]): 0.00051 s⁻¹
- koff (human serum albumin [5]): 0.0039 s⁻¹
- Ratio Kd (human serum albumin [7]): 7.7
- binding result (mouse serum albumin): binds

B4: 11C03-v6 fused at the C-terminus of Fc-ABDEG (Fc fusion, not shown: a dimerising Fc or GST; small tags and cut ends)
chain: B2 chain with G105A
- R0 pH 5.5 (human serum albumin [9]): 39.3 RU
- R0 pH 7.4 (human serum albumin [10]): 12.1 RU
- R0 5.5/7.4 (human serum albumin [13]): 3.26

B5: Motavizumab-Fab fragment fused with 2H11 C-terminally to the light chain using a 20GS linker (protein, part only; not given: motavizumab Fab and linker, not shown: another chain or arm of the molecule; small tags and cut ends)
VHH: ELQVVESGGGLVQAGGSLRLSCAASGRTFRSNTMGWFRQAPGKEREFVAAITWSGGTTYYADSVKGRFAISGDNAKNTVYLQMNSLKPEDTAVYYCAAEGPKWEPWNGIYHPADFGSWGQGTQVTVSS
- KD ratio (pH 7.4 / pH 5.5) (human serum albumin [1]): 92.6
- Kd (human serum albumin [2]): 264 nM
- Kd (human serum albumin [3]): 2.85 nM

B6: 2H11-v12 fused at the C-terminus of Fc-ABDEG (two-armed Fc-ABDEG-20GS-Cterm fusion) (Fc fusion, not shown: a dimerising Fc or GST; large carriers; small tags and cut ends)
VHH: B5 VHH with Y110A
- binding result [18]: no binding

B7: 2H11-v15 fused at the C-terminus of Fc-ABDEG (two-armed Fc-ABDEG-20GS-Cterm fusion) (Fc fusion, not shown: a dimerising Fc or GST; large carriers; small tags and cut ends)
VHH: B5 VHH with D114A
- binding result [18]: no binding

B8: 2H11-v16 fused at the C-terminus of Fc-ABDEG (two-armed Fc-ABDEG-20GS-Cterm fusion) (Fc fusion, not shown: a dimerising Fc or GST; large carriers; small tags and cut ends)
VHH: B5 VHH with F115A
- binding result [18]: no binding

B9: 2H11-v9 fused at the C-terminus of Fc-ABDEG (two-armed Fc-ABDEG-20GS-Cterm fusion) (Fc fusion, not shown: a dimerising Fc or GST; large carriers; small tags and cut ends)
VHH: B5 VHH with N107A
- binding result [18]: no binding

B10: 9F02 (VHH)
VHH: EVQLVESGGGLVQAGGSLRLSCTASRRAFIGYAMGWFRQAPGKEREFVAAISWFAGDTTDYADSVKGRFTISRDNAKNTVYLQMNGLKPEDTAVYVCAASSARPMSGRSDEYHYWGQGTQVTVSS
- Kd (human serum albumin [4]): 0.575 nM
- koff (human serum albumin [4]): 7.8e-05 s⁻¹
- koff (human serum albumin [5]): 0.00013 s⁻¹
- Ratio Kd (human serum albumin [7]): 1.6
- binding result [8]: binds
- binding result (mouse serum albumin): binds

B11: 9E10 (VHH)
VHH: B10 VHH with E1Q, V2L, L4V, A24T, R26G, D63N, G86S, M105L, G107S
- Kd (human serum albumin [4]): 15.4 nM
- koff (human serum albumin [4]): 0.00246 s⁻¹
- koff (human serum albumin [5]): 0.00412 s⁻¹
- Ratio Kd (human serum albumin [7]): 1.7
- binding result [8]: binds
- binding result (mouse serum albumin): binds
